Experimental data reported in publication doi:10.1101/2023.06.16.545308 (bioRxiv, 2023).
Where two headings read alike, the source gives them in different places.

Key:
[1] = target: T1, human transporter associated with antigen processing (TAP), heterodimer of TAP1 and TAP2 (human, UniProt Q03518;Q03519); assay: cryo-EM structure
[2] = target: T1, human transporter associated with …; assay: cryo-EM structure; remark: listed apart in the source

T1 sequence (Q03518 whole entry, chain 1 of 2): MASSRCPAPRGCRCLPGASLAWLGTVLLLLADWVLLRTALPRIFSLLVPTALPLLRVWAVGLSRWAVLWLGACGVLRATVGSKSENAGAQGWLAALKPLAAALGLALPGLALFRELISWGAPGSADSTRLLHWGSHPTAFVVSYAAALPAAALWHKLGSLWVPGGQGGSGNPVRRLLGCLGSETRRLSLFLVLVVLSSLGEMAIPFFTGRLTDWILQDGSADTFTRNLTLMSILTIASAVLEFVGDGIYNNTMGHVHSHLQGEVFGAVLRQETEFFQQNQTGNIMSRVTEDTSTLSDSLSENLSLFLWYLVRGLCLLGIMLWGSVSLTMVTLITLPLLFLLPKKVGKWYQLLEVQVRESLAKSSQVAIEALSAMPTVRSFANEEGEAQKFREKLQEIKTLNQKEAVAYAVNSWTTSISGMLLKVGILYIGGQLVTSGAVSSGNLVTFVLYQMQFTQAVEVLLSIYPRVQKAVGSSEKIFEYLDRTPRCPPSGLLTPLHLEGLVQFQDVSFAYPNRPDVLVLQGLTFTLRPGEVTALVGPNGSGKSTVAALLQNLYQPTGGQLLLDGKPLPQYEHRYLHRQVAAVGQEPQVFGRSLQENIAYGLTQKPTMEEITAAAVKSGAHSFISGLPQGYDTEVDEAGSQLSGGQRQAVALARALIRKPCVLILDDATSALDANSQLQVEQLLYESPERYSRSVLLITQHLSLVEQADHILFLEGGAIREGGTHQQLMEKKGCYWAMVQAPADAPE
T1 sequence (Q03519 whole entry, chain 2 of 2): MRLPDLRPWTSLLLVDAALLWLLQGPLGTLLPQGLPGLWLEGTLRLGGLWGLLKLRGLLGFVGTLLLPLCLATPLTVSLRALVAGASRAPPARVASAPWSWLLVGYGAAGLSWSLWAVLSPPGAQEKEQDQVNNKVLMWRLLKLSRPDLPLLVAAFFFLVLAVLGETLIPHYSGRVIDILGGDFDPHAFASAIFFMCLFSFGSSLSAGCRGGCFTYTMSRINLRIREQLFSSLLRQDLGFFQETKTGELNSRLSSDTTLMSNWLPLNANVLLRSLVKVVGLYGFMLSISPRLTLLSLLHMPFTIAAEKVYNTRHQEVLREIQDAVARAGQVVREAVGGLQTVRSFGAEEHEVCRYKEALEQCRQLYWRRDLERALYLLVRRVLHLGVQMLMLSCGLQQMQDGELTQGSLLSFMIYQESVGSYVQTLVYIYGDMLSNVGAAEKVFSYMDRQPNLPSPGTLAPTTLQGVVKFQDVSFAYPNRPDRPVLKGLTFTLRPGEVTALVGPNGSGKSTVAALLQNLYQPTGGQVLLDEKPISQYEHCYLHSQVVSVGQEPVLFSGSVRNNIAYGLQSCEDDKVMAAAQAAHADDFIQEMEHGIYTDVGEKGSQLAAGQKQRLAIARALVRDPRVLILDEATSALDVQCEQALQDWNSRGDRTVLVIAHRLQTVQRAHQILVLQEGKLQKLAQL

Binder | binding result [1] | binding result [2]
RRYSTEL [b27’’ peptide (7-mer)] | binds | –
ILKEPVHGV [a2 peptide (9-mer presented by HLA-A2)] | – | binds
RRYQKSTEL [b27 peptide (9-mer presented by HLA-B27)] | – | binds
